According to PMC9817314, “Detection of human annexin A1 as the novel N-terminal tag for separation and purification handle” (Microbial Cell Factories, 2023):

T1: human annexin A1 (hanA1) tagged emerald green fluorescent protein (EmGFP) (human, UniProt P04083 3-346)
T1 construct: human annexin A1, amplified from a human brain cDNA library; EmGFP (reporter, detected by fluorescence) follows after the BamH I / Bgl II junction; also called hanA1-EmGFP; HanA1-EmGFP; source: E. coli BL21(DE3); in crude extract (clear lysate), or separated by CaCl2 precipitation and EDTA-Na2 resolubilisation; not shown: EmGFP, C-terminal, kept
T1 sequence (looked up): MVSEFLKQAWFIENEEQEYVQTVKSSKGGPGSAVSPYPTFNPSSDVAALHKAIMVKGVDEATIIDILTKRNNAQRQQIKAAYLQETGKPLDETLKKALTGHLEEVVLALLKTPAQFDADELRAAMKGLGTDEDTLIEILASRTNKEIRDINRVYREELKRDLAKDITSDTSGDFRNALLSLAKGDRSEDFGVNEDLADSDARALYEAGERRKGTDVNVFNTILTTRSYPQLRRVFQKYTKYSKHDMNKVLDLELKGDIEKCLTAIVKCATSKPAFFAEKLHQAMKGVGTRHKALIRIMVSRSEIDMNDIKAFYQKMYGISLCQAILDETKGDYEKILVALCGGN

B1: MBP-hS100A11 (human S100A11 fused to maltose binding protein) (natural protein, UniProt P31949 2-105, looked up)
chain: AKISSPTETERCIESLIAVFQKYAGKDGYNYTLSKTEFLSFMNTELAAFTKNQKDPGVLDRMMKKLDTNSDGQLDFSEFLNLIGGLAMACHDSFLKAVPSQKRT
notes: human S100A11, amplified from a human cDNA library; also called MBP-S100A11; immobilized S100A11; source: E. coli, soluble; immobilised on amylose resin and washed; not shown: MBP, N-terminal, kept

What was measured:
S100A11 (Homo sapiens) = S100A11 (Homo sapiens) (UniProt P31949); conditions: cited from earlier work
[1] = target: T1, human annexin A1 (hanA1) tagged emerald …; test: pull-down; MBP-hS100A11 immobilised on amylose resin; hanA1-EmGFP in crude extract (clear lysate) in buffer B (20 mM Tris-HCl pH 8.0, 10% glycerol, 1 mM CaCl2), room temperature, 2 h; washed with buffer B containing 50 mM NaCl; eluted with buffer C (buffer A with 5 mM EDTA-Na2); SDS-PAGE; conditions: one partner purified

Row | Molecule | Kd (S100A11 (Homo sapiens)) | binding result [1]
1 | annexin I N-terminal peptide (from UniProt P04083) | 5 µM | 
2 | B1 |  | binds
